Reference: paper doi:10.1101/2025.05.07.652689, “Structural features within precursor microRNA-20a regulate Dicer-TRBP processing” (bioRxiv, 2025)

Target: T1, Recombinant human Dicer (FLAG-Dicer) (human, UniProt Q9UPY3 1-1922)
T1 construct: Dicer, human RNase III enzyme; source: Expi293 cells expressing FLAG-Dicer (University of Michigan Protein core), purified (M2 anti-FLAG resin)
Test: SEC; purified Dicer and TRBP mixed at a 1:3 molar ratio, concentrated, loaded on HiLoad 16/600 Superdex 200 in buffer D (20 mM Tris-HCl pH 8.0, 150 mM NaCl, 2 mM DTT)
Conditions: both partners purified

T1 sequence (Q9UPY3 whole entry): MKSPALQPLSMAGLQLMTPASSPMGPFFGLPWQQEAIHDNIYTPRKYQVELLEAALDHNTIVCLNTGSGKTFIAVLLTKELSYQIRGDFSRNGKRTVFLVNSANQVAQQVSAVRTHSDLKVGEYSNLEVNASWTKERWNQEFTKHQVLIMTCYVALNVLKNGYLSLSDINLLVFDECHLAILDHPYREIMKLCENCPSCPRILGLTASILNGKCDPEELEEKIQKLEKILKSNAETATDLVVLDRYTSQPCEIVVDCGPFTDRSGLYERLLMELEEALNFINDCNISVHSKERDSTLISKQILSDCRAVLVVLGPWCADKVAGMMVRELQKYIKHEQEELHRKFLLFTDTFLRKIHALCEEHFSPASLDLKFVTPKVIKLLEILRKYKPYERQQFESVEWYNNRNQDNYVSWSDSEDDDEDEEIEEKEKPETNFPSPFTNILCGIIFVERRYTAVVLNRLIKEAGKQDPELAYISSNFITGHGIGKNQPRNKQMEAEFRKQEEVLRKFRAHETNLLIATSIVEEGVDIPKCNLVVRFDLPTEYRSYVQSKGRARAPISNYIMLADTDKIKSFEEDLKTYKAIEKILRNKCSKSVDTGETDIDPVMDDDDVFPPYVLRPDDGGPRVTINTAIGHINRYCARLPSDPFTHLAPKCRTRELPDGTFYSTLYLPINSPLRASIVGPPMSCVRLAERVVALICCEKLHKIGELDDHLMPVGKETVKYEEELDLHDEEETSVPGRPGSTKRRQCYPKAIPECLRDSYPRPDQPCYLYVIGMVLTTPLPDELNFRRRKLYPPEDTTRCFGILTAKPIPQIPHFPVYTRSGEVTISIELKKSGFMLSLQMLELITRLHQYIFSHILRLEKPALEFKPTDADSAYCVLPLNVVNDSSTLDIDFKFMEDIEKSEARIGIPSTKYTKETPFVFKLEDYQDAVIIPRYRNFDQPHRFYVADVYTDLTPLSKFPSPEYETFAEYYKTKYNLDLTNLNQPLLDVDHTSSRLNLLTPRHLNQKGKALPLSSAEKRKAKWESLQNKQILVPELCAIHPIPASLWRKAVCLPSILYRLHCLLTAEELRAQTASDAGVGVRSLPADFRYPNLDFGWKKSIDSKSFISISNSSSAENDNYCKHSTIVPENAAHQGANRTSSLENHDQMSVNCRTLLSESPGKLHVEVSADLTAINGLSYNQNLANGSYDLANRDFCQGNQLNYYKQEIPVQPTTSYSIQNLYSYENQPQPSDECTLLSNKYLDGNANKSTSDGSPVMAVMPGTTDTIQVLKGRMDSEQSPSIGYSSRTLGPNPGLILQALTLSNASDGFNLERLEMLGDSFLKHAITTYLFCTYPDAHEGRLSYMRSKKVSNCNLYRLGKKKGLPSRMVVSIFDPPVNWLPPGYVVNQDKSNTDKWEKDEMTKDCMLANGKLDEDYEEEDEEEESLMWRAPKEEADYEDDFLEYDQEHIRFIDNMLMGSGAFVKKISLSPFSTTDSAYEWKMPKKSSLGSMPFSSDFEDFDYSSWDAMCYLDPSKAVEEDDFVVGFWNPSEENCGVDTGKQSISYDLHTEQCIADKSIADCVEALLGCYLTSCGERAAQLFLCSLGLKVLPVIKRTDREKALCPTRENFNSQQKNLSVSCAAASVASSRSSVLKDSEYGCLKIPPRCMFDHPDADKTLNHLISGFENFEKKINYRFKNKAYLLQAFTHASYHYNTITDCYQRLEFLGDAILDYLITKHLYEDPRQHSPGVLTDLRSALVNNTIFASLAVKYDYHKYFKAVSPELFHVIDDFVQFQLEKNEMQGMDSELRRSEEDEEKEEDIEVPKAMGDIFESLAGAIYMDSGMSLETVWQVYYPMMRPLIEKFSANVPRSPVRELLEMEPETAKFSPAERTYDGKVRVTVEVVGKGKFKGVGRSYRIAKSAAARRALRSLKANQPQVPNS

binding result: binds
B1: human transactivation response element RNA-binding protein (TRBP) (natural protein, UniProt Q15633 1-366, looked up)
chain: MSEEEQGSGTTTGCGLPSIEQMLAANPGKTPISLLQEYGTRIGKTPVYDLLKAEGQAHQPNFTFRVTVGDTSCTGQGPSKKAAKHKAAEVALKHLKGGSMLEPALEDSSSFSPLDSSLPEDIPVFTAAAAATPVPSVVLTRSPPMELQPPVSPQQSECNPVGALQELVVQKGWRLPEYTVTQESGPAHRKEFTMTCRVERFIEIGSGTSKKLAKRNAAAKMLLRVHTVPLDARDGNEVEPDDDHFSIGVGSRLDGLRNRGPGCTWDSLRNSVGEKILSLRSCSLGSLGALGPACCRVLSELSEEQAFHVSYLDIEELSLSGLCQCLVELSTQPATVCHGSATTREAARGEAARRALQYLKIMAGSK
notes: TRBP, human, from plasmid pET28a-TRBP; The construct is that of Addgene plasmid #50351
